# In patent publication US20140348834A1 (published 2014):
# Where two headings read alike, the source gives them in different places.
# T1: rat IL-17A (rat, UniProt Q61453 18-150, limits assumed)
# T1 construct: Purified recombinant protein in SPR
# T1 sequence (looked up): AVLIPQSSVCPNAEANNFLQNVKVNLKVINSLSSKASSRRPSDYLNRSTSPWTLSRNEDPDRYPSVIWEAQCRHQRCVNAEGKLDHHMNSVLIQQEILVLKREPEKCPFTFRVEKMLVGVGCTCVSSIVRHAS
# T2: mouse IL-17A (mouse, UniProt Q62386 26-158, limits assumed)
# T2 construct: Purified recombinant protein in SPR; also called MuIL-17A; murine IL-17A
# T2 sequence (looked up): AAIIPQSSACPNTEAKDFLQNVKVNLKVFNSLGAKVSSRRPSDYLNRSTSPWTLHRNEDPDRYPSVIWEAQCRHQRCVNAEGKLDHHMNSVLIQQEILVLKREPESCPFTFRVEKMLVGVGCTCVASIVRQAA
# What was measured:
# [1] = target: T3, human IL-17A (human, UniProt Q16552 24-155); experiment: cell-based or functional assay
# T3 sequence (Q16552 24-155 limits assumed): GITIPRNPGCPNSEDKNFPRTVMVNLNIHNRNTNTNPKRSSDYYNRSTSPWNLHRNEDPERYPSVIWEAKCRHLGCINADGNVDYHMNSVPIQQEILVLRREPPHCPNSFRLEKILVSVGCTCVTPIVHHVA
# [2] = target: human IL-17A/F (human, UniProt Q16552 24-155; Q96PD4 31-163); experiment: cell-based or functional assay
# Target sequence in this assay (Q16552 24-155 limits assumed, chain 1 of 2): as the sequence (Q16552 24-155 limits assumed) above
# Target sequence in this assay (Q96PD4 31-163 limits assumed, chain 2 of 2): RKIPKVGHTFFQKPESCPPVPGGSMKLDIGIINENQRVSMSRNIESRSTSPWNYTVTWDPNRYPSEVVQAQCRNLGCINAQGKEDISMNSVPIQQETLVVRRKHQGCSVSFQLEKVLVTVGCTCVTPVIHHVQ
# [3] = target: cynomolgous monkey (cyno) IL-17A (cynomolgus monkey, UniProt A0A2K5TTB0 24-155); experiment: cell-based or functional assay
# cynomolgous monkey (cyno) IL-17A, sequence (A0A2K5TTB0 entry or part of it): as the sequence (Q16552 24-155 limits assumed) above, with T3A, P8S, N34S, I77V, N78K, P104R counted along it
# [4] = target: T3, human IL-17A; experiment: ELISA, captured antibody, serially diluted biotin-IL-17 (Example 1.5.1)
# Experimental: The following protocol is used to characterize the binding of IL-17 antibodies to human IL-17 by enzyme-linked immunosorbent assay (ELISA). […] 1. Coat ELISA plate with 50 μl per well of Goat anti Mouse IgG-Fc at 2 ug/ml, overnight at 4° C. […] 2. Wash plate 3×PBS/Tween. […] 3. Add 50 μl Mab diluted to 1 μg/ml in PBS/0.1% BSA to appropriate wells. Incubate 1 hr at room temperature (RT). […] 4. Wash plate 3× with PBS/Tween. […] 5. Add 50 μl of serial diluted biotin-IL17 (human IL-17, IL-17A/F, cyno IL-17) to appropriate wells. Incubate 1 hr at room temperature (RT). […] 6. Wash plate 3× with PBS/Tween. […] 7. […] Incubate 1 hr at RT. […] 8. Wash plate 3× with PBS/Tween. […] 9. […] 10. Stop reaction with 50 μl 2N H₂SO₄. […] Read absorbance at 450 nm.
# [5] = target: T4, human IL-17A (human, UniProt Q16552 24-155); experiment: hIL17A ELISA
# T4 construct: Recombinant; biotinylated in the ELISA; also called hIL-17; hIL17A
# T4 sequence (Q16552 24-155): as the sequence (Q16552 24-155 limits assumed) above
# [6] = target: T4, human IL-17A; experiment: cell-based or functional assay; remark: listed apart in the source
# [7] = target: T5, cynomolgus monkey IL-17A (cynomolgus monkey, UniProt A0A2K5TTB0 24-155); experiment: cell-based or functional assay
# T5 sequence (A0A2K5TTB0 entry or part of it): as the sequence (Q16552 24-155 limits assumed) above, with T3A, P8S, N34S, I77V, N78K, P104R counted along it
# [8] = target: T4, human IL-17A; experiment: SPR (Biacore 3000), antibody captured by anti-Fc, antigen in solution;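 note: purified recombinant IL-17 antigens flowed over captured antibodies in HBS-EP buffer, global Langmuir one-to-one fit of association and dissociation phases, KD derived from koff over kon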
# [9] = target: T6, human IL-17A/F (human, UniProt Q16552 24-155; Q96PD4 31-163); experiment: as above
# T6 construct: Recombinant; biotinylated in the ELISA; also called hIL-17A/F; HuIL-17A/F
# T6 sequence (Q16552 24-155, chain 1 of 2): as the sequence (Q16552 24-155 limits assumed) above
# T6 sequence (Q96PD4 31-163, chain 2 of 2): as the sequence (Q96PD4 31-163 limits assumed, chain 2 of 2) above
# [10] = target: T5, cynomolgus monkey IL-17A; experiment: as above
# [11] = target: T1, rat IL-17A; experiment: as above
# [12] = target: T2, mouse IL-17A; experiment: as above
binder,measurement,setting,value
"IL17-G9-1 (antibody, V domains shown) VH: EVQLLESGGGVVQPGRSLRLSCAASGFIFSNYGMHWVRQAPGKGLEWVAVISYDGSNKYYADSVKGRFTISRDNSKNTLYLEMNSLRPEDTAVYYCAKVGASGDYYYSYGLDVWGQGTTVTVSS VL: QSVLTQPPSASGTPGQTVSISCSGSHSNIGRHPVDWYQQVPGAAPKLLMYYGGYRPSGVPDRFSGSQSGTSASLAISGLQSEDEADYYCATWDDRLVGYVFGSGTKVTVLG","Potency (pM), IL-17-driven IL-6 production in HS27 cells",[1],27 pM
same,"Potency (pM), IL-17-driven IL-6 production in HS27 cells",[2],99 pM
same,"Potency (pM), IL-17-driven IL-6 production in HS27 cells",[3],604 pM
same,EC50,[4],130 pM
"IL17-G9-M1 (antibody, V domains shown) VH: EVQLLESGGGVVQPGRSLRLSCAASGFIFSNYGMHWVRQAPGKGLEWVAVISYDGGYKYYADSVKGRFTISRDNSKNTLYLEMNSLRPEDTAVYYCAKLSLSGDYYYSYGFDGWGQGTTVTVSS VL: QSVLTQPPSASGTPGQTVSISCSGSKSNIGSHYVHWYQQVPGAAPKLLMYDFGQRPSGVPDRFSGSQSGTSASLAISGLQSEDEADYYCGTWDDWLGGYVFGTGTKVTVLG","Potency (pM), IL-17-driven IL-6 production in HS27 cells",[1],88 pM
same,EC50,[4],80 pM
"IL17-G9-6 (antibody, V domains shown) VH: EVQLLESGGGVVQPGRSLRLSCAASGFIFSDYGMHWVRQAPGKGLEWVAVISYDGSNKYYADSVKGRFTISRDNSKNTLYLEMNSLRPEDTAVYYCAKVGASGDYYYSYGLDVWGQGTTVTVSS VL: QSVLTQPPSASGTPGQTVSISCSGRQSNIGNHYVDWYQQVPGAAPKLLIYGDVIRPSGVPDRFSGSQSGTSASLAISGLQSEDEADYYCATWDDWLAGYVFGSGTKVTVLG","Potency (pM), IL-17-driven IL-6 production in HS27 cells",[1],884 pM
same,EC50,[4],120 pM
"IL17-G9-M2 (antibody, V domains shown) VH: EVQLLESGGGVVQPGRSLRLSCAASGFIFSNYGMHWVRQAPGKGLEWVAVISYDGSNKYYADSVKGRFTISRDNSKNTLYLEMNSLRPEDTAVYYCAKVGASGDYYYSYGLDVWGQGTTVTVSS VL: QSVLTQPPSASGTPGQTVSISCSGHNSNIGYHYVHWYQQVPGAAPKLLIYGDGWRPSGVPDRFSGSQSGTSASLAISGLQSEDEADYYCGTWDDWLGGYVFGTGTKVTVLG","Potency (pM), IL-17-driven IL-6 production in HS27 cells",[1],38 pM
same,"Potency (pM), IL-17-driven IL-6 production in HS27 cells",[2],44 pM
same,"Potency (pM), IL-17-driven IL-6 production in HS27 cells",[3],105 pM
same,EC50,[4],80 pM
"IL17-G9-2 (antibody, V domains shown) VH: EVQLLESGGGVVQPGRSLRLSCAASGFIFRNYGMHWVRQAPGKGLEWVAVISYDGSNKYYADSVKGRFTISRDNSKNTLYLEMNSLRPEDTAVYYCAKVGASGDYYYSYGLDVWGQGTTVTVSS VL: QSVLTQPPSASGTPGQTVSISCSGSNSNIGRHPVDWYQQVPGAAPKLLIYYDDQRPSGVPDRFSGSQSGTSASLAISGLQSEDEADYYCATWDDSLGGYVFGSGTKVTVLG","Potency (pM), IL-17-driven IL-6 production in HS27 cells",[1],24 pM
same,"Potency (pM), IL-17-driven IL-6 production in HS27 cells",[2],147 pM
same,"Potency (pM), IL-17-driven IL-6 production in HS27 cells",[3],157 pM
same,EC50,[4],180 pM
"IL17-G9-4 (antibody, V domains shown, no own VH entry is printed) VH: EVQLLESGGGVVQPGRSLRLSCAASGFIFSNYGMHWVRQAPGKGLEWVAVISYDGSNKYYADSVKGRFTISRDNSKNTLYLEMNSLRPEDTAVYYCAKVGASGDYYYSYGLDVWGQGTTVTVSS VL: QSVLTQPPSASGTPGQTVSISCSGRQSNIGRHYVDWYQQVPGAAPKLLMYYDSIRPSGVPDRFSGSQSGTSASLAISGLQSEDEADYYCATWDDSLGGYVFGSGTKVTVLG","Potency (pM), IL-17-driven IL-6 production in HS27 cells",[1],38 pM
same,"Potency (pM), IL-17-driven IL-6 production in HS27 cells",[2],119 pM
same,"Potency (pM), IL-17-driven IL-6 production in HS27 cells",[3],247 pM
same,EC50,[4],60 pM
"IL17-h5C5.2 (antibody, V domains shown, IgG; constant regions not specified) VH: EVQLVQSGAEVKKPGASVKVSCKASGYTFTDYEFHWVRQAPGQGLEWMGVIHPGNGGTAYNQNFRDRVTITADKSTSTAYMELSSLRSEDTAVYYCARFLTYEGYFDYWGQGTLVTVSS VL: NIVMTQTPKFLLVSPGDRVTITCKASQSVSIDVGWFQQKPGQSPKLLIYHASNRYTGVPDRFTGSGYGTDFTFTVNTVQAEDLAVYFCQQDYSSPYTFGGGTKLELKR",EC50,[5],1200 pM
same,"Potency (pM), IL-17-driven IL-6 production in HS27 cells",[6],6 pM
same,"Potency (pM), IL-17-driven IL-6 production in HS27 cells",[7],11 pM
"IL17-h5C5.15 (antibody, V domains shown, IgG; constant regions not specified; also called h5C5.15 (VH.1b-Vk.3a)) VH: EVQLVQSGAEVKKPGASVKVSCKASGYTFTDYEFHWVRQAPGQGLEWIGVIHPGNGGTAYNQNFRDRATLTADKSTSTAYMELSSLRSEDTAVYYCTRFLTYEGYFDYWGQGTLVTVSS VL: EIVMTQSPATLSVSPGERATLSCKASQSVSIDVGWFQQKPGQSPRLLIYHASNRYTGVPARFSGSGSGTDFTLTISSLQPEDFAVYFCQQDYSSPYTFGQGTKLEIKR",EC50,[5],20 pM
same,"Potency (pM), IL-17-driven IL-6 production in HS27 cells",[6],13 pM
same,"Potency (pM), IL-17-driven IL-6 production in HS27 cells",[7],12 pM
same,Kd,[8],458 pM
same,koff,[8],0.000437 s⁻¹
same,kon,[8],954000 M⁻¹ s⁻¹
same,Kd,[9],1430 pM
same,koff,[9],0.00112 s⁻¹
same,kon,[9],781000 M⁻¹ s⁻¹
same,Kd,[10],358 pM
same,koff,[10],0.000216 s⁻¹
same,kon,[10],603000 M⁻¹ s⁻¹
same,Kd,[11],5800 pM
same,koff,[11],0.0036 s⁻¹
same,kon,[11],621000 M⁻¹ s⁻¹
same,Kd,[12],2830 pM
same,koff,[12],0.000557 s⁻¹
same,kon,[12],197000 M⁻¹ s⁻¹
"IL17-h5C5.11 (antibody, V domains shown, IgG; constant regions not specified) VH: EVQLVQSGAEVKKPGASVKVSCKASGYTFTDYEFHWVRQAPGQGLEWMGVIHPGNGGTAYNQNFRDRVTITADKSTSTAYMELSSLRSEDTAVYYCARFLTYEGYFDYWGQGTLVTVSS VL: EIVMTQSPATLSVSPGERATLSCKASQSVSIDVGWYQQKPGQAPRLLIYHASNRYTGIPARFSGSGSGTDFTLTISSLQPEDFAVYYCQQDYSSPYTFGQGTKLEIKR",EC50,[5],30 pM
same,"Potency (pM), IL-17-driven IL-6 production in HS27 cells",[6],115 pM
same,"Potency (pM), IL-17-driven IL-6 production in HS27 cells",[7],90 pM
"IL17-h5C5.20 (antibody, V domains shown, IgG; constant regions not specified) VH: EVQLVQSGAEVKKPGASVKVSCKASGYTFTDYEFHWVRQAPGQGLEWMGVIHPGNGGTAYNQNFRDRVTITADKSTSTAYMELSSLRSEDTAVYYCARFLTYEGYFDYWGQGTLVTVSS VL: NIVMTQSPATLSVSPGERATLSCKASQSVSIDVGWFQQKPGQSPRLLIYHASNRYTGVPARFSGSGSGTDFTLTISSLQPEDFAVYFCQQDYSSPYTFGQGTKLEIKR",EC50,[5],30 pM
same,"Potency (pM), IL-17-driven IL-6 production in HS27 cells",[6],12 pM
same,"Potency (pM), IL-17-driven IL-6 production in HS27 cells",[7],13 pM
"B6-44 (antibody, V domains shown) VH: EVQLVQSGAEVKKPGSSVKVSCKASGGSFLSYGFSWVRQAPGQGLEWMGGITPFFGLADYAQKFQGRVTITADESTTTAYMELSGLTSDDTAVYYCARESSEFWNGYYCTQDFDLWGQGTTVTVSS VL: EIVLTQSPDFQSVTPKEKVTITCRASQDIGSDLHWYQQKPDQSPKLLIKYASNSISGVPSRFSGSGSGTDFTLTINGLEAEDAGTYYCHQTAYLPQTFGPGTKVDIK","Potency (pM), IL-17-driven IL-6 production in HS27 cells",[1],120 pM
same,"Potency (pM), IL-17-driven IL-6 production in HS27 cells",[2],288 pM
same,"Potency (pM), IL-17-driven IL-6 production in HS27 cells",[3],65 pM
"IL17-h5C5.19 (antibody, V domains shown, IgG; constant regions not specified) VH: QVQLQQSGAELVRPGASVKLSCKALGYTFTDYEFHWVKQTPVHGLEWIGVIHPGNGGTAYNQNFRDKATLTADKSSSTAYMELSSLTSEDSGVYYCTRFLTYEGYFDYWGQGTALTVSS VL: NIVMTQSPATLSVSPGERATLSCKASQSVSIDVGWFQQKPGQSPRLLIYHASNRYTGVPARFSGSGSGTDFTLTISSLQPEDFAVYFCQQDYSSPYTFGQGTKLEIKR",EC50,[5],30 pM
same,"Potency (pM), IL-17-driven IL-6 production in HS27 cells",[6],11 pM
same,"Potency (pM), IL-17-driven IL-6 production in HS27 cells",[7],9 pM
"IL17-B6-29 (antibody, V domains shown) VH: EVQLVQSGAEVKKPGSSVKVSCKASGGSFISYGYNWVRQAPGQGLEWMGGITPFFGTADYAQKFQGRVTITADESTTTAYMELSGLTSDDTAVYYCAREPNDFWNGYYTTHHFDYWGQGTTVTVSS VL: DVVMTQSPDFQSVTPKEKVTITCRASQNIGSALHWYQQKPDQSPKLLIKYASQSISGVPSRFSGSGSGTDFTLTINGLEAEDAGTYYCHQSTSLPHTFGQGTKLDIKR","Potency (pM), IL-17-driven IL-6 production in HS27 cells",[1],134 pM
same,EC50,[4],90 pM
